Measured values published in US5985599.

Target: dimeric human IgG1 (myeloma protein, chemically cross-linked) (human) [IgG part: P01857]
Assay: direct binding of 125I-dimeric hIgG1 to transfected COS-7 cells, corrected for expression

Row | percent binding compared to wild-type FcγRII (percent of wild-type) | percent decrease of hIgG1-dimer binding | Substance
1 | 21.9 | 80% | FcγRII Arg/His131-Ala (receptor)
2 | 114 | – | FcγRII Asp133-Ala (receptor)
3 | 20.6 | – | FcγRII Leu115-Ala (receptor)
4 | 15.9 | – | FcγRII Lys113-Ala (receptor)
5 | 8.2 | > 90% | FcγRII Phe129-Ala (receptor)
6 | 53.5 | – | FcγRII Pro114-Ala (receptor)
7 | 134 | – | FcγRII Pro134-Ala (receptor)
8 | 73.5 | – | FcγRII Val116-Ala (receptor)

Target: dimeric human IgG1 (myeloma protein, chemically cross-linked) (human) [IgG part: P01857]
Assay: direct binding of 125I-dimeric human IgG1 to transfected COS-7 cells

Row | Ka | fold increase of binding over wild-type FcγRII | Substance
9 | 1e+07 M⁻¹ | 10 fold | FcγRII Leu159-Ala (receptor)
10 | 1e+07 M⁻¹ | 10 fold | FcγRII Phe160-Ala (receptor)
11 | 1e+06 M⁻¹ | – | human FcγRII (wild-type FcγRIIa) encoded by HFc3.0 (receptor)

Target: mouse beta1 Fc(gamma)R encoded by pFc113 (mouse)
Assay: sheep anti-mouse Ig rosetting on the cells of Table 5

Row | % rosette formation (background) | Substance
12 | < 5% | irrelevant antibody (background control of Table 5)
